What follows are binders tested against L1 (DV1-GV4) (human) (assay: DELFIA affinity ranking, signal with 100 nM biotinylated L1).
Sequence of L1 (DV1-GV4) (human) (chain, as listed by the source, chain 1 of 2): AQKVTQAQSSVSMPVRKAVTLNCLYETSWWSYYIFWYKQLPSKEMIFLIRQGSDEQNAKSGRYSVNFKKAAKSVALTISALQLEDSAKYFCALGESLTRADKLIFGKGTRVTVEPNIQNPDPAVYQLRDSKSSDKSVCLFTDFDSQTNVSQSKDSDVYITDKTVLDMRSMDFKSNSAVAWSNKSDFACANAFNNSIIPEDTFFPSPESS
Sequence of L1 (DV1-GV4) (human) (chain, as listed by the source, chain 2 of 2): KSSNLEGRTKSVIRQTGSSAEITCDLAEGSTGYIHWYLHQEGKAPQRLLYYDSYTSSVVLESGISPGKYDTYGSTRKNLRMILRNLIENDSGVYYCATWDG

| 100 nM L1 | Binder |
| --- | --- |
| 163000 | 1245_P01_E07 scFv (scFv) scFv: QVQLVESGGGLVKPGGSLRLSCAASGFTFSDYYMSWIRQAPGKGLEWVSYISSSGSTIYYADSVKGRFTISRDNAKNSLYLQMNSLRAEDTAVYYCARVDYADAFDIWGQGTLVTVSSGGGGSGGGGSGGGASDIQMTQSPSSLSASVGDRVTIACRAGQSIGTYLNWYQQKPGKAPKLLIYVASSLQSGVPSRFSGSGSGTEFTLTISSLQPEDFATYYCQQSYSTLLTFGRGTKVEIK |
| 17100 | 1251_P02_G10 scFv (scFv) scFv: EVQLVESGGGLVQPGGSLRLSCAASGFTFSDYYMSWIRQAPGKGLEWVSYISSSGSTIYYADSVKGRFTISRDNAKNSLYLQMNSLRAEDTAVYYCARHSWNDAFDIWGRGTLVTVSSGGGGSGGGGSGGGASDIQMTQSPSSLSASVGDRVTITCRASQSISSHLNWYQQKPGKAPKLLIYAASSLQSGVPSRFSASGSGTDFTLTISSLQPEDFATYYCQQSYSTLLTFGGGTKVEIK |
| 65300 | 1251_P02_C05 scFv (scFv) scFv: EVQLLESGGGLVQPGGSLRLSCAASGFTFSSYAMSWVRQAPGKGLEWVSAISGGGGTTYSSDSVKGRFTISRDNSKNTLYLQMNSLRAEDTAVYYCARDSGVAFDIWGQGTLVTVSSGGGGSGGGGSGGGASDIQMTQSPSFLSASVGDRVTITCRASQNIRTWLAWYQQKPGRAPKLLIYDASSLESGVPSRFSGSGSGTDFTLTISSLQPEDFATYYCQQFKRYPPTFGLGTKVEIK |
| 1980 | 1252_P01_C08 scFv (scFv) scFv: EVQLLESGGGLVQPGRSLRLSCAASGFTVSSNYMSWVRQAPGKGLEWVSVIYSGGSTYYADSVKGRFTISRDNSKNTLYLQMNSLRAEDTAVYYCASPIELGAFDIWGQGTLVTVSSGGGGSGGGGSGGGASSYELTQPPSVSVAPGKTARITCGGNNIGSQSVHWYQQKPGQAPMLVIYYDSDRPSGIPERFSGSNSGNTATLTISRVEAGDEADYYCQVWDSSSDHVVFGGGTKLTVL |
| 137000 | 1141_P01_E01 scFv (scFv) scFv: QVQLVQSGAEVKKPGESLKISCKGSGYSFTSYWIGWVRQMPGKGLEWMGIIYPGDSDTRYSPSFQGQVTISADKSISTAYLQWSSLKASDTAMYYCARHQVDTRTADYWGQGTLVTVSSGGGGSGGGGSGGGASQSALTQPASVSGSPGQSVTISCTGTRSDVGGYNYVSWYQHHPGKAPKLMIYEVSNRPSGVSNRFSGSKSGNTASLTISGLQAEDEADYYCSSYTSTSTLVFGGGTKLTVL |
| 10400 | 1245_P02_F07 scFv (scFv) scFv: QVQLQQSGPGLVKPSQTLSLTCVISGDSVSSNSAAWNWIRQSPSRGLEWLGRTYYRSKWYNDYAVSVKSRITINPDTSKNQFSLQLNSVTPEDTAVYYCARDYYYSMDVWGQGTMVTVSSGGGGSGGGGSGGGASDIQMTQSPSTLSASVGDRVTITCRASQSISSWLAWYQQKPGKAPKLLIYDASSLESGVPLRFSGSGSGTEFTLTISSLQPDDFATYYCQQSHSHPPTFGPGTKVDIK |
| 23800 | 1139_P01_E04 scFv (scFv) scFv: QVQLQQSGPGLVKPSQTLSLTCAISGDSVSSNSAAWNWIRQSPSRGLEWLGRTYYRSKWYNDYAVSVRSRITINPDTSKNQFSLQLNSVTPEDTAVYYCARSWNDAFDIWGQGTTVTVSSGGGGSGGGGSGGGASDIVMTQSPSTLSASIGDRVTITCRAGQSISTWLAWYQQKPGKAPKLLIYDASSLESGVPLRFSGSGSGTDFTLTISSLQPEDFATYYCQQSYSTPLTFGGGTKVEIK |
| 18400 | 1245_P01_G09 scFv (scFv) scFv: QVQLQQSGPGLVKPSQTLSLTCAISGDSVSSNSAAWNWIRQSPSRGLEWLGRTYYGSKWYNEYALSVKSRIIINPDTSKNQFSLQLNSVTPEDTAVYYCARDYYYSMDVWGQGTLVTVSSGGGGSGGGGSGGGASDIVMTQSPSTLSASIGDRVTITCRAGQSISTWLAWYQQKPGKAPKLLIYDASSLESGVPLRFSGSGSGTEFTLAISSLQPDDFATYYCQQSYSTPVTFGQGTKVEIK |
| 5900 | 1245_P02_G04 scFv (scFv) scFv: QVQLQQSGPGLVKPSQTLSLTCAISGDSVSSKSAAWNWIRQSPSRGLEWLGRTYYRSKWSTDYAASVKSRITINPDTSKNQLSLQLNSVTPEDTAVYYCARTWSGYVDVWGQGTLVTVSSGGGGSGGGGSGGGASDIQMTQSPPALSASVGDRVTITCRASQDINDWLAWYQHKPGKAPKLLIYDASSLESGVPSRFSGSGSGTEFTLTISSLQPDDFATYYCQQSYSTPQVTFGQGTRLEIK |

— patent EP4218932A2
